# Data reported in patent US9695189B2, “Chemical crosslinkers and compositions thereof” (priority 2013, dated 2017).
# Assay: Cleavage of conjugate in potassium phosphate buffer and rat serum
# Type: in vitro ADME
# Settings: potassium phosphate buffer pH 7.4 and rat serum (1:1), 37° C., overnight incubation
# Experimental: A mixture of compound (26) (2.9 mg) in potassium phosphate buffer (1.0 mL, pH 7.4) and rat serum (1.0 mL, Aleken Biologicals) was incubated at 37° C.
substance,measurement,value
L-glutathione N^2-CBZ-lysine conjugate [Compound 26],Cleavage (hydrolysis) of conjugate releasing N^2-(carbobenzyloxy)-L-lysine,hydrolysis of compound (26) to yield N^2-(carbobenzyloxy)-L-lysine was observed
